# System: Escherichia coli TOP10
# Assay: shrunken log2 fold change of peptide-encoding DNA abundance (4.5 h post-induction vs induction); higher = less antimicrobial activity (less host growth inhibition)
# Settings: time post-induction: 4.5 h; library: site-saturation at positions 5, 18, 19, 20
# 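Note: peptides expressed intracellularly from a pBAD plasmid library in pooled LB shake-flask culture, induced with 0.3% L-arabinose, DNA abundance read by NGS, three biological replicates, DESeq2 with apeglm shrinkage.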
row,Sequence,shrunken log2 fold change
1,RRIRYRPPRLPRPRPRPWEAPRP,-0.271
2,RRIRYRPPRLPRPRPRPWGVPRP,-0.242
3,RRIRYRPPRLPRPRPRPWHEPRP,-0.01
4,RRIRYRPPRLPRPRPRPWIAPRP,-0.791
5,RRIRYRPPRLPRPRPRPWIGPRP,-0.314
6,RRIRYRPPRLPRPRPRPWKYPRP,-0.0732
7,RRIRYRPPRLPRPRPRPWNPPRP,-0.00498
8,RRIRYRPPRLPRPRPRPWPGPRP,-0.15
9,RRIRYRPPRLPRPRPRPWPMPRP,-0.0578
10,RRIRYRPPRLPRPRPRPWPSPRP,-0.00149
11,RRIRYRPPRLPRPRPRPWQPPRP,-0.274
12,RRIRYRPPRLPRPRPRPWRDPRP,-0.0075
13,RRIRYRPPRLPRPRPRPWSYPRP,-0.23
14,RRIRYRPPRLPRPRPRPWVEPRP,0.0344
15,RRIRYRPPRLPRPRPRPWVTPRP,-0.477
16,RRIRYRPPRLPRPRPRPWYIPRP,-0.00804
17,RRIRYRPPRLPRPRPRPYALPRP,-0.172
18,RRIRYRPPRLPRPRPRPYAWPRP,-0.14

row,Sequence,shrunken log2 fold change
1,RRIRYRPPRLPRPRPRPYCKPRP,-1.32
2,RRIRYRPPRLPRPRPRPYCMPRP,-0.918
3,RRIRYRPPRLPRPRPRPYDDPRP,-0.129
4,RRIRYRPPRLPRPRPRPYDQPRP,-0.124
5,RRIRYRPPRLPRPRPRPYIRPRP,-1.92e-05
6,RRIRYRPPRLPRPRPRPYIVPRP,-0.496
7,RRIRYRPPRLPRPRPRPYIYPRP,-2.06
8,RRIRYRPPRLPRPRPRPYLIPRP,-0.554
9,RRIRYRPPRLPRPRPRPYMDPRP,-0.14
10,RRIRYRPPRLPRPRPRPYNEPRP,-1.3
11,RRIRYRPPRLPRPRPRPYNIPRP,-0.426
12,RRIRYRPPRLPRPRPRPYQFPRP,-0.183
13,RRIRYRPPRLPRPRPRPYQMPRP,-0.344
14,RRIRYRPPRLPRPRPRPYSAPRP,-1.51
15,RRIRYRPPRLPRPRPRPYTDPRP,-0.396
16,RRIRYRPPRLPRPRPRPYTRPRP,-1.51
17,RRIRYRPPRLPRPRPRPYYNPRP,-0.231
